Test results from publication PMC5800811.

Experiments:
[1] = 10-11 d drug culture, PIPLC, anti-CD59 flow cytometry; conditions: glycan changed form; control: untreated HEK293FF6 cells
[2] = PIPLC treatment, anti-CD59 flow cytometry; conditions: glycan changed form

B1: CD59: DMJ (protein)
parent chain: MGIQGGSVLFGLLLVLAVFCHSGHSLQCYNCPNPTADCKTAVNCSSDFDACLITKAGLQVYNKCWKFEHCNFNDVTTRLRENELTYYCCKKDLCNFNEQLENGGTSLSEKTVLLLVTPFLAAAWSLHP
In the case of B1, the “other: PIPLC resistance of surface CD59 (GPI-inositol acylation)” value (“other: PIPLC resistance of surface CD59” below) [1] is reported as “no change”.

B2: CD59: sgALG8 in MOGS-KO (protein)
parent chain: B1 parent chain
In the case of B2, the “other: PIPLC resistance of surface CD59” value ([2]; control: MOGS-KO cells) is reported as “decreases”.

B3: CD59: KIF (protein)
parent chain: B1 parent chain
For B3, the “other: PIPLC resistance of surface CD59” value [1] was “no change”.

B4: CD59: sgALG6 in MOGS-KO (protein)
parent chain: B1 parent chain
In the case of B4, the “other: PIPLC resistance of surface CD59” value ([2]; control: MOGS-KO cells) is reported as “decreases”.

B5: CD59: DNJ (protein)
parent chain: B1 parent chain
In the case of B5, the “other: PIPLC resistance of surface CD59” value [1] is reported as “increases”.

B6: CD59: GANAB-KO (protein)
parent chain: B1 parent chain
With B6 the “other: PIPLC resistance of surface CD59” value ([2]; control: WT HEK293 cells) was “increases”.
